Data on six molecules can be found in US20230235039A1 (REGENECORE BIOTECH, published 2023).

First the molecules themselves.
B1: humanized Fc-fused single-domain antibody 1B3-V2 (Fc fusion, not shown: a dimerising Fc or GST)
chain (part 1 of 2): QVQLVESGGGSVQAGGSLRLSCAASGITASTSCMGWFRQSPGKEREGSLATIYDASTSYADSVKGRFTISRDNSKNILYLQMNNLRAEDTAVYYCAAARYCMFWSHPSYWGQGTQVTVSS
chain (part 2 of 2): HHHHHH
notes: Humanized variant of 1B3; vector RJK-V4-hFC
B2: Fc fusion protein of anti-IL-5 single-domain antibody 1B3 (Fc fusion, not shown: a dimerising Fc or GST)
chain (part 1 of 2): QVQLVESGGGSVQAGGSLRLSCAASGITASTSCMGWFRQSPGKEREGSLATIYDGSTSYADSVKGRFTISVDNAKNILYLQMNNLKPEDTAMYYCAAAKYCMFWSHPSYWGQGTQVTVSS
chain (part 2 of 2): HHHHHH
notes: Vector RJK-V4-hFC; Embodiments name a human IgG4 Fc; also called clone 1B3
B3: humanized Fc-fused single-domain antibody 2B3-V2 (Fc fusion, not shown: a dimerising Fc or GST)
chain (part 1 of 2): QVQLVESGGGSVQAGGSLRLSCAASGNTFSFSTYCMGWFRQSPGKEREGSLATIYDASTAYAGSVKGRFTISRDNSKNILYLQMNNLRAEDTAVYYCAAARYCMFWSHPSYWGQGTQVTVSS
chain (part 2 of 2): HHHHHH
notes: Humanized variant of 2B3; vector RJK-V4-hFC
B4: Fc fusion protein of anti-IL-5 single-domain antibody 2B3 (Fc fusion, not shown: a dimerising Fc or GST)
chain (part 1 of 2): QVQLVESGGGSVQAGGSLRLSCAASGNTFSFSTYCMGWFRQSPGKEREGSLATIYDGSTAYAGSVKGRFTISVDNAKNILYLQMNNLKPEDTAMYYCAAAKYCMFWSDPSYWGQGTQVTVSS
chain (part 2 of 2): HHHHHH
notes: Vector RJK-V4-hFC; also called clone 2B3
B5: single-domain antibody 1B3 (VHH, expressed in E. coli) (VHH)
VHH: QVQLVESGGGSVQAGGSLRLSCAASGITASTSCMGWFRQSPGKEREGSLATIYDGSTSYADSVKGRFTISVDNAKNILYLQMNNLKPEDTAMYYCAAAKYCMFWSHPSYWGQGTQVTVSS
notes: pMECS-VHH expressed in E. coli HB2151, purified on Ni-column; not shown: C-terminal tags from vector pMECS (HA tag, and the His tag implied by Ni-column purification)
B6: single-domain antibody 1B8 (VHH, expressed in E. coli) (VHH)
VHH: QVQLVESGGGSVQAGGSLRLSCAASGITASTSCMGWFRQSPGKEREGSLATIYDGSTSYADSVKGQFTISVDNAKNILYLQMNNLKPEDTAMYYCAAAKYCMFWSHPSYWGQGTQVTVSS
notes: as for B5

The target in the first assay is T1, human recombinant IL-5 protein with a histidine tag at carboxyl terminal (human, UniProt P05113 20-134).
T1 construct: range 20-134; Expressed in 293F cells; also called hrIL-5-cHis; human IL-5 protein; not shown: histidine tag at carboxyl terminal
As to the kind of experiment: BLI (Octet 96), binding molecule on sensor, IL-5 antigen 200 nM and 2-fold dilutions. The protocol:
Formulation of SD buffer: A proper amount of bovine serum albumin and Tween 20 were dissolved in 1×PBS (pH 7.4), so that the mass (or volume) fractions of bovine serum albumin and Tween 20 were 0.1% and 0.02% respectively. The IL-5 binding molecule was formulated in the SD buffer to a concentration of 10 μg/mL. Formulation of antigen working solution: the antigen was formulated in the SD buffer to 200 nM, and then diluted by a 2-fold gradient in a total of 5 concentration gradients. In addition, a blank control of SD buffer was also provided. A proper amount of 0.1M glycine stock solution was diluted by 10-fold in deionized water and mixed uniformly, to obtain a regeneration solution. Octet 96 and the Data Acquisition software in its supporting computer were run. The bottom and side of the acquisition probe were cleaned using a lens tissue with a proper amount of 75% ethanol. The instrument was pre-warmed for 15 min or more. Sensor pre-wetting: sensor was soaked in the SD buffer for 10 min or more before the assay. Then, the machine procedure was set according to baseline→antibody→baseline→binding antigen→dissociating antigen→regenerating sensor for assay operation.
As for B1, the Kd (as a rule, the free concentration of one partner at which half of the binding sites on the other are occupied at equilibrium, for simple one-to-one binding) stood at 1.02 nM; the koff (commonly the first-order rate constant of dissociation) stood at 0.000184 s⁻¹; the kon (commonly the second-order rate constant of association) worked out at 180000 M⁻¹ s⁻¹.
As for B2, the dissociation constant (Kd) came to 0.88 nM, the koff is 0.000132 s⁻¹ and the kon is 149000 M⁻¹ s⁻¹.
For B3, the Kd is 2.06 nM, the koff stood at 0.000406 s⁻¹ and the kon was found to be 197000 M⁻¹ s⁻¹.
As for B4, the equilibrium dissociation constant (Kd) worked out at 1.6 nM, the koff came to 0.000295 s⁻¹ and the kon was 184000 M⁻¹ s⁻¹.

A further assay has as its target T1, human recombinant IL-5 protein with a …. As to the kind of experiment: ELISA, IL-5 protein coated on the plate, VHH titrated, anti-HA tag HRP secondary antibody, OD450. How it is done:
50 μL of 1 μg/mL IL-5 protein was coated on an ELISA plate at 4° C. overnight. The plate was washed. 200 μL of 5% milk was added for blocking at 37° C. for 1 h. The IL-5 protein-specific single-domain antibody (VHH) obtained in Example 1 was diluted to 2 μg/mL, and then diluted by a 5-fold gradient, in a total of 8 concentration gradients. The plate was washed. 50 μL of antibody was added in duplicate wells, and then incubated at 37° C. for 1 h. The plate was washed. 50 μL of mouse anti-HA tag HRP secondary antibody was added, and then incubated at 37° C. for 30 min. The plate was washed (for multiple times). 50 μL of TMB that had been restored to room temperature was added to react at room temperature in the dark for 15 min. 50 µL of stopping solution (1N HCl) was added. The resultant was measured using a microplate reader and then recorded. The curve was plotted.
Background: An ELISA detects its analyte on a solid surface through an enzyme-linked reagent.
As to B5, the half-maximal effective concentration (EC50 (read off the curve)) (usually the midpoint of the concentration-response curve) is about 6 nM.
In the case of B6, the “EC50 (read off the curve)” value was about 4 nM.
